From patent EP2170953B1

Biological target: Aβ1-28 peptide, biotinylated (Anaspec)
Experiment: ELISA on biotinylated peptide, Ab 10 µg/ml, mean of 2, background subtracted
Conditions: remark: other sources report otherwise

Chain of Aβ1-28 peptide, biotinylated (Anaspec) (chain, as listed by the source): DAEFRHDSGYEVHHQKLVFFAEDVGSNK

- O.D. (mean): -0.02 O.D.
B1: ACI-12-Ab-11 (antibody, V domains shown)
VL: QAVVTQESALTTSPGGTVILTCRSSTGAVTTSNYANWVQEKPDHLFTGLIGGTSNRAPGVPVRFSGSLIGDKAALTITGAQTEDDAMYFCALWYSTHYVFGGGTKVTVL
VH: QVQLQQSDAELVKPGASVKISCKVSGYTFTDHTIHWMKQRPEQGLEWIGYIYPRDGSTKYNEKFKGKATLTADKSSSTAYMQLNSLTSEDSAVYFCARDYGYAFDYWGQGTTLTVSS
modifications: here or on the partner: biotinylated (position not given)
